According to patent publication US20240174727A1, “LONG-ACTING NATRIURETIC PEPTIDES AND USES THEREOF” (Eli Lilly and Company, priority 2022, published 2024):
Read-outs that look alike come from different tables or passages of the source. Numbered stars: 1 amine (or outer) side, 2 acyl side, 3 side chain; on linkers, the order of the positions; unused ones are H or OH. Bridge positions count the residues as written; N and C are the ends. Square brackets hold non-standard residues; d marks the D form. Peptide text beside a SMILES is read from it. * marks the point of attachment. thioacetal = thioacetal linkage between two cysteines (intrachain bond at the bracketed Cys); PEG24 = NCCOCCOCCOCCOCCOCCOCCOCCOCCOCCOCCOCCOCCOCCOCCOCCOCCOCCOCCOCCOCCOCCOCCOCCOCCC(=O)O; C20 diacid = O=C(O)CCCCCCCCCCCCCCCCCCC(=O)*; γGlu = O=C(O)[C@H](CCC(=O)[*:2])N[*:1]; 4Pal = N[C@@H](Cc1ccncc1)C(=O)O; Dap = NC[C@H](N)C(=O)O; AEEA = NCCOCCOCC(=O)O; CH2 = C([*:1])[*:2]

T1: rat NPRA (Rattus norvegicus, UniProt P18910)
T1 construct: Full-Length cDNA Cloning and Generation of Cell Lines Overexpressing Natriuretic Peptide Receptors (NPRs); expressed in transfected cells; host or cells: Jump-in T-Rex HEK293 cells, pJTI R4 CMV-TO MCS pA vector, tetracycline induction
T1 sequence (P18910 29-1057): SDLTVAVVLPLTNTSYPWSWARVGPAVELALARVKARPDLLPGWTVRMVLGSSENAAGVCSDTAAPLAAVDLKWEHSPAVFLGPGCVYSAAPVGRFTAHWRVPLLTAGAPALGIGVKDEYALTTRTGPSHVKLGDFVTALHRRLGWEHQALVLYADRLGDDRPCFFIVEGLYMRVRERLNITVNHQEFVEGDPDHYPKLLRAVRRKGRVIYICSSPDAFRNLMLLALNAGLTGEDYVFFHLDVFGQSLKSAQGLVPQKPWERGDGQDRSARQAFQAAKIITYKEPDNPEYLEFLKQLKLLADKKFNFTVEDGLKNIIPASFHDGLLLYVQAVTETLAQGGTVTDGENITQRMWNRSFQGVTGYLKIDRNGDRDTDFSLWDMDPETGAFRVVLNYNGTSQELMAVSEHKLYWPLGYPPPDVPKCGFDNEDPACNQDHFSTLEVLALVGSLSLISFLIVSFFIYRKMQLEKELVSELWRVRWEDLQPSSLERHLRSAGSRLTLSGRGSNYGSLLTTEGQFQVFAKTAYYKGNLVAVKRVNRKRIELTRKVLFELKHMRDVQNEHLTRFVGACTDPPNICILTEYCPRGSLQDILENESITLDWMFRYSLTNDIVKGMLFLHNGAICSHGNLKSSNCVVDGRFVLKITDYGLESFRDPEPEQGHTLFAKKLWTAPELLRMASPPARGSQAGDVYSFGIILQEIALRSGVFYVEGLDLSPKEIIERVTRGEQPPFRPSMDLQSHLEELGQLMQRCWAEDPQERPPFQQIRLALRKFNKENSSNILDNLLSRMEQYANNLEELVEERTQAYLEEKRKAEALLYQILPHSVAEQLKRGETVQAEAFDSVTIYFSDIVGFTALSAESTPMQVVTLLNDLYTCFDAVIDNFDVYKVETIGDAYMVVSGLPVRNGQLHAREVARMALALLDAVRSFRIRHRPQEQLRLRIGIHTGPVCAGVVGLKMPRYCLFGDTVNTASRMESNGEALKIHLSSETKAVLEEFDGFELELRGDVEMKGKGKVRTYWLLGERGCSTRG

T2: human NPRA (human, UniProt P16066 33-1061)
T2 sequence (looked up): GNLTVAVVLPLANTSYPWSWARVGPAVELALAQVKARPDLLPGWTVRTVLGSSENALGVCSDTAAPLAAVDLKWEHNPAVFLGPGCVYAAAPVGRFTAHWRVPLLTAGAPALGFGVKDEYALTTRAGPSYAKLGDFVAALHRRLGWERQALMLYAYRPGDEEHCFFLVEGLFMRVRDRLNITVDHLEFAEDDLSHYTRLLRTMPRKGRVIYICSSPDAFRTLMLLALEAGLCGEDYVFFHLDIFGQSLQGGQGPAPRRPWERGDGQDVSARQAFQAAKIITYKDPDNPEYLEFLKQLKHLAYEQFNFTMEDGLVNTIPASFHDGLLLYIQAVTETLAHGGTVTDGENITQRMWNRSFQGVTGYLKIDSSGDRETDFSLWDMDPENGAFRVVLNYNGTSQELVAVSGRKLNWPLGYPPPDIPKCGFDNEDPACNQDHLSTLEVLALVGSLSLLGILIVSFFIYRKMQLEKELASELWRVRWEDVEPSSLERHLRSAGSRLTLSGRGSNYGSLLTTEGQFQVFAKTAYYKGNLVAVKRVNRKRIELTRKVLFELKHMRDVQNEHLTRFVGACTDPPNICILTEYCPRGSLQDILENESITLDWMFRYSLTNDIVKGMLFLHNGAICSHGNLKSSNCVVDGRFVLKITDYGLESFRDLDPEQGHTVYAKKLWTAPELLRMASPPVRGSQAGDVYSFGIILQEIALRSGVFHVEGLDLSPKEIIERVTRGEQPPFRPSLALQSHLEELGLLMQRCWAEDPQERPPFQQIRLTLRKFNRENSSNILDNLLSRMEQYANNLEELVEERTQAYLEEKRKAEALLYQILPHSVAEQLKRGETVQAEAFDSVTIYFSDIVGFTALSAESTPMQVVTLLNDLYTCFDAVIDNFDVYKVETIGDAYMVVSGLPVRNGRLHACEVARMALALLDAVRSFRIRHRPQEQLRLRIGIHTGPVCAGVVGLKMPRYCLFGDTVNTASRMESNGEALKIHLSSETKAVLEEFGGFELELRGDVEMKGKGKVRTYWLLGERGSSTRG

T3: rat NPRA (rat, UniProt P18910 29-1057)
T3 sequence (looked up): T1 sequence (P18910 29-1057)

B1: HOOC-(CH2)18-CO-(γGlu)-EKEKEKGEKPRSS[CFGG-Dap-IDRIGHQSGLGC]PSFRHGSPSSGAPPPS-NH2 (peptide)
peptide: {C20 diacid-γGlu}-EKEKEKGEKPRSSCFGG[Dap]IDRIGHQSGLGCPSFRHGSPSSGAPPPS-NH2
modifications: bridge 14-30 via thioacetal
B2: HOOC-(CH2)18-CO-(γGlu)-EKEKEKGEKPRSS[CFGKRIDRIGRYSGLGC]PSFRHGSPSSGAPPPS-NH2 (peptide)
peptide: {C20 diacid-γGlu}-EKEKEKGEKPRSSCFGKRIDRIGRYSGLGCPSFRHGSPSSGAPPPS-NH2
modifications: bridge 14-30 via thioacetal

Assays:
[1] = biological target: T1, rat NPRA; test: Rat NPRA cGMP activity assay (HTRF) in HEK293 cells overexpressing NPRA; format: cell-based
Experimental: All sequences were verified by full-length sequencing performed by ACGT DNA Sequencing Services (Wheeling, IL). The target cDNA was cloned into pJTI R4 CMV-TO MCS pA vector and then co-transfected with pJT1R4 Int vector into Jump-in™ T-Rex™ HEK293 cells for mammalian inducible expression using Jump-in™ T-Rex™ HEK293 kit and Lipofectamine LTX and Plus Reagent following manufacturer's protocols, as briefly described below.
Jump-in™ T-Rex™ HEK293 cells were plated in a BioCOAT® poly-D-lysine coated 6-well plate (Becton Dickinson, cat no. 354413) at 1 million cells/well in 2 mL culture medium and incubated for 18 h at 37° C. and 5% CO2 to 50-70% confluence. A cDNA mix was made in a 50 mL tube by adding 1.5 μg target cDNA, 1.5 μg pJT1R4 Int vector, 3 μL Plus Reagent, and 300 μL Opti-MEM I sequentially into the tube. A reagent mix was made in a separate 50 mL tube by adding 7.5 μL Lipofectamine LTX into 300 μL Opti-MEM I. The mixtures were incubated for 5 min at room temperature. The cDNA mix was then transferred into the reagent mix, mixed well, and incubated for additional 30 min at room temperature. A 500 μL of cDNA/Lipofectamine complex was then transferred to the wells of the cell plate in which the culture medium was changed to 2 mL of transfection medium containing DMEM with 4.5 g/L D-glucose supplemented with 10% FBS-HI and 20 mM HEPES. Transfected cells were cultured for 48 h in an incubator at 37° C. and 5% CO2. A subclone or pool from each overexpressing cell line was maintained in culture medium with the addition of 2 mg/mL G418 sulfate for the clone selection based on its built-in resistance to G418 sulfate for at least 3 weeks with medium changed every 2-3 days.
NPRs were overexpressed in T-Rex™ HEK293 cells following the induction with 300 ng/mL tetracycline in culture medium for 48 h. Induced cell lines in an exponential growth phase were treated with 0.05% trypsin-EDTA for a few seconds at room temperature, harvested in cell medium containing FBS to neutralize the trypsin, counted, and cryopreserved at the density of 2 million cells/mL in cell preservation solution containing FBS-HI with 5% DMSO. Cryopreserved cells were stored at −80° C. for a few days prior to transferring to a liquid nitrogen tank. Induced cell lines were then used for suspension assays to measure the activity of polypeptides to stimulate cGMP production in cGMP assays or for the preparation of cell membranes to measure the binding activity of polypeptides in competitive radioligand binding assays, as described below.
Test polypeptides were added starting at 10 μM concentration and at 10-fold decreasing concentrations to obtain 8-point concentration-response curves (i.e., 10 μM to 1 pM). The quantity of cGMP generated was detected using HTRF® technology and normalized to maximum amount produced by 100 nM amidated rat ANP and the minimum amount produced by assay buffer. Detailed steps are outlined below.
Stock solutions of test polypeptides (2 mM) dissolved in DMSO were first diluted 100-fold in assay buffer containing HBSS with Ca^2+ and Mg^2+, 5 mM HEPES, 0.5 mM IBMX, and 0.1% BSA or 0.1% casein (pH 7.4). The polypeptides were further serially diluted in 1:10 dilution steps in assay buffer containing 0.1% BSA or 0.1% casein to generate 8-point 2× working stock solutions ranging from 20 μM to […].
A 10 μL cell suspension containing 4000 cells was plated in Costar® half-area white opaque 96-well plates (Corning, cat no. 3693). Then 10 μL of assay buffer (basal activity), 200 nM of amidated rat ANP (maximum activity) or 2× working stock solutions of test polypeptides were transferred into the plate. Final concentration of DMSO in each well was 0.5%. The plate was shaken for 15 sec and then incubated for 40 min at room temperature.
The cGMP generated was measured using cGMP kit following the manufacturer's directions, as described below.

[2] = biological target: T2, human NPRA; test: cell-based or functional assay
[3] = biological target: T3, rat NPRA; test: cell-based or functional assay
[4] = assay buffer with 0.1% casein, read-out: cGMP Assay (EC50, pM) w/Casein rNPRA

Molecule | EC50 [1, 4] | EC50 ([1]; assay buffer with 0.1% BSA, read-out: cGMP Assay (EC50, pM) w/BSA rNPRA) | cGMP Assay (EC50, pM) w/BSA, hNPRA [2] | cGMP Assay (EC50, pM) w/Casein, hNPRA [2] | cGMP Assay (EC50, pM) w/BSA, rNPRA [3] | cGMP Assay (EC50, pM) w/Casein, rNPRA [3]
{C20 diacid-γGlu}-EKEKEKG[PEG24]EKPRSSCFGKGIDRIGHQSGLGCPSFRHSGSPSSGAPPPSG-NH2 (linker 15-31 via CH2) [Example 133, HOOC-(CH2)18-CO-(γGlu)-EKEKEKG-PEG24-EKPRSS[CFGKGIDRIGHQSGLGCJPSFRHSGSPSSGAPPPSG-NH2] | 581000 pM | – | – | – | – | –
{C20 diacid-γGlu}-EKEKEKG[AEEA][AEEA][AEEA][AEEA]S[4Pal]RRSSCFGGRIDRIGHQSGLGCPSFRHGGKSSGAPPPS-NH2 (linker 18-34 via CH2) [Example 83] | 16700 pM | – | – | – | – | –
CC[C@H](C)[C@@H]1NC(=O)[C@H](CCCNC(=N)N)NC(=O)[C@H](CC(=O)O)NC(=O)[C@H]([C@@H](C)CC)NC(=O)[C@H](CCCNC(=N)N)NC(=O)CNC(=O)CNC(=O)[C@H](Cc2ccccc2)NC(=O)[C@@H](NC(=O)[C@H](CO)NC(=O)[C@H](CO)NC(=O)[C@H](CCCNC(=N)N)NC(=O)[C@H](CCCNC(=N)N)NC(=O)[C@H](Cc2ccncc2)NC(=O)[C@H](CO)NC(=O)CNC(=O)[C@H](CCCCN)NC(=O)[C@H](CCC(=O)O)NC(=O)[C@H](CCCCN)NC(=O)[C@H](CCC(=O)O)NC(=O)[C@H](CCCCN)NC(=O)[C@H](CCC(=O)O)NC(=O)CC[C@H](NC(=O)CCCCCCCCCCCCCCCCCCC(=O)O)C(=O)O)CSSC[C@@H](C(=O)N2CCC[C@H]2C(=O)N[C@@H](CO)C(=O)N[C@@H](Cc2ccccc2)C(=O)N[C@@H](CCCNC(=N)N)C(=O)N[C@@H](Cc2c[nH]cn2)C(N)=O)NC(=O)CNC(=O)[C@H](CC(C)C)NC(=O)CNC(=O)[C@H](CO)NC(=O)[C@H](CCC(N)=O)NC(=O)[C@H](C)NC(=O)CNC1=O [Example 22] ({C20 diacid-γGlu}-EKEKEKGS[4Pal]RRSSCFGGRIDRIGAQSGLGCPSFRH-NH2; disulfide 14-30) | – | 192000 pM | – | – | – | –
B1 | – | – | 2.87e+06 pM | 19700 pM | 1.73e+06 pM | 200000 pM
B2 | – | – | 11700 pM | 692 pM | 4.18e+06 pM | 41100 pM
